One substance from publication PMC12720418 can be followed below.

pKd: −log10 of the molar value.

In this test the target is VC1 tandem domains of the receptor for advanced glycation end-products (RAGE). The test is described as follows: ITC; 100 μM calprotectin (CP*) injected into 50 μM RAGE VC1 in the cell; 25°C; 50 mM HEPES pH 7.5, 150 mM NaCl, 10 mM CaCl2; average of three titrations, independent binding model.

For orientation: pKd means the negative decadic logarithm of the Kd, by convention in mol/L. A high value points to a small Kd.

As to “calprotectin heterodimer of S100A8 (C42S) and S100A9 (C3S) (from UniProt P05109 1-93; P06702 4-114) (complex)”, the negative-log Kd (pKd) is 6.42.
